Paper PMC4176175, “Requirements for 5′dRP/AP lyase activity in Ku”
Residue numbers refer to the chain shown, from its start.

Legend:
Experiment in all cases: EMSA; 1 nM Ku, 1 nM DNA, 15 min; EMSA: 1 nM Ku with 1 nM radiolabeled 30 bp DNA, 15 min, no streptavidin/UDG; buffer, salt, pH and temperature not given in the material
Settings in all cases: protein: recombinant;recombinant, tags: C-terminal His6;, copies: 1;1, label: 3' 32P-cordycepin on strand 1, 5' overhang 3 nt (GUG) on strand 1, 5' overhang 1 nt (T) on strand 2, paired by the added 3' cordycepin
[1] = molecular target: T1, Xenopus Ku70 WT;Xenopus Ku80 WT (Xenopus laevis;Xenopus laevis, UniProt Q9W626;Q6DDS9 1-611;1-726, |)
T1 sequence 1: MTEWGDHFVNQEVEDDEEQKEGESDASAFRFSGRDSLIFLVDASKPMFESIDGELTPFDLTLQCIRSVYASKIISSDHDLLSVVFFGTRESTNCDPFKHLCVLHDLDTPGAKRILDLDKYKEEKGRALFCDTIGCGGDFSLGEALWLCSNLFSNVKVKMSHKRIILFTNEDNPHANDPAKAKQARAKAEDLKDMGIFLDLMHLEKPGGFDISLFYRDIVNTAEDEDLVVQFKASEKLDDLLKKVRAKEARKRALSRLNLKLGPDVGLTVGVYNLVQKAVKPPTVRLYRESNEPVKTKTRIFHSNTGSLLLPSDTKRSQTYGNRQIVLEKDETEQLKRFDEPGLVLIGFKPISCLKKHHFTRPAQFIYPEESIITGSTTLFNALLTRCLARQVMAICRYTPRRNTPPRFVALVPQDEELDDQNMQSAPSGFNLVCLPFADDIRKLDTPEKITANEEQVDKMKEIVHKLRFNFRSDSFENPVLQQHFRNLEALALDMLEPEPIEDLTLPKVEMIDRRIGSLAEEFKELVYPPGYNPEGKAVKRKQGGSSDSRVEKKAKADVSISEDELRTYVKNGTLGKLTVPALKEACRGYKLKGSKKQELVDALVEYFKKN
T1 sequence 2: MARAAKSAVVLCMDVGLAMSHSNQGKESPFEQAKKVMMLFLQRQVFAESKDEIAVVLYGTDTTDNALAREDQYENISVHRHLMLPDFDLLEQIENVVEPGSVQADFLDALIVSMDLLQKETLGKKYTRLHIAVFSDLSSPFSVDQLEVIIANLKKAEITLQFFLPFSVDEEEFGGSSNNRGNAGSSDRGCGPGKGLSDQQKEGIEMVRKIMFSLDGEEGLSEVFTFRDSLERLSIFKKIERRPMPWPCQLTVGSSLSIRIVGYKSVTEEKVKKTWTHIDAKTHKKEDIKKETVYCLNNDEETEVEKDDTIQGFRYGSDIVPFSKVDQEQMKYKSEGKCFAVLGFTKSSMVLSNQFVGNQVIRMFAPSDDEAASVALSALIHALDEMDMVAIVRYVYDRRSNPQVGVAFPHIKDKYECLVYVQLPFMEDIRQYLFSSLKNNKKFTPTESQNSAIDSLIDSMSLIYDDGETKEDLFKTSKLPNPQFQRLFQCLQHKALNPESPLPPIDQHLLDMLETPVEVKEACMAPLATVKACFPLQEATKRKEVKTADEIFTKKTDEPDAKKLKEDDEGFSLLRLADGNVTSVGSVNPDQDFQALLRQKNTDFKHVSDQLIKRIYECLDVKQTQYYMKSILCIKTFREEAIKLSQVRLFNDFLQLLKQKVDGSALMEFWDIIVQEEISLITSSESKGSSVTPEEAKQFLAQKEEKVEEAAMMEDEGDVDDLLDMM

[2] = molecular target: T2, yeast Ku70 2A;yeast Ku80 WT (Saccharomyces cerevisiae;Saccharomyces …, UniProt P32807;Q04437 1-602;1-629, K25A;K161A|)
T2 sequence 1: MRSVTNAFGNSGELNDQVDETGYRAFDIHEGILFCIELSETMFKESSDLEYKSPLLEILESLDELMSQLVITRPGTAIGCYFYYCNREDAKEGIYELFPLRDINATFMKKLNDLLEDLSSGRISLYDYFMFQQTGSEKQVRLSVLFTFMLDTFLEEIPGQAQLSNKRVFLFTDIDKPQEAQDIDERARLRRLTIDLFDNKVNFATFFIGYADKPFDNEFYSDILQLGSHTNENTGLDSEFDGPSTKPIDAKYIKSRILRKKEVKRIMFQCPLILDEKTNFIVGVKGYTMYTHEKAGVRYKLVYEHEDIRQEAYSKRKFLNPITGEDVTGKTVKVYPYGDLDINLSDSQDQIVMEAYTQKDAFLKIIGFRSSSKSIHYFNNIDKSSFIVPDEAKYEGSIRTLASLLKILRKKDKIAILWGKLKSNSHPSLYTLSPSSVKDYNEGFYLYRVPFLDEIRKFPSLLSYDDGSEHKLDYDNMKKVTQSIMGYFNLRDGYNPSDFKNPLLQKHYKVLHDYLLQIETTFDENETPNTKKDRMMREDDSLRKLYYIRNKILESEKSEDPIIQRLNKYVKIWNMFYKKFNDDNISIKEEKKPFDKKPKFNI
T2 sequence 2: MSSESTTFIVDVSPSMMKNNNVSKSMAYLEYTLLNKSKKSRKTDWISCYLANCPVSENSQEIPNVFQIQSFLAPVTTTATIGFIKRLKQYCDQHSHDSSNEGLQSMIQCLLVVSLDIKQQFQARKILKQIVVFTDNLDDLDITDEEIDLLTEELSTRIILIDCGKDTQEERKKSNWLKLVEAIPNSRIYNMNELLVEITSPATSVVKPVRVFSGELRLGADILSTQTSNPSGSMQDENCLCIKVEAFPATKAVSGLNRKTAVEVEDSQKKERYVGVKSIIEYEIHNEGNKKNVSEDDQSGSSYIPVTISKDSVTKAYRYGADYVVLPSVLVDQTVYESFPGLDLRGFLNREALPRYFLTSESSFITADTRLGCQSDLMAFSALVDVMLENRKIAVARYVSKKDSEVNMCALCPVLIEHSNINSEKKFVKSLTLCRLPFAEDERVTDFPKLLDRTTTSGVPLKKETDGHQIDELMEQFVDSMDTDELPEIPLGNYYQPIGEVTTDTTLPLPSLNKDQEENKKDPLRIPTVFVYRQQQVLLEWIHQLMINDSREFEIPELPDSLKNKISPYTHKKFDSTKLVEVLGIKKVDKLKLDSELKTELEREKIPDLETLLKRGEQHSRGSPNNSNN

[3] = molecular target: T3, yeast Ku70 WT;yeast Ku80 WT (Saccharomyces cerevisiae;Saccharomyces …, UniProt P32807;Q04437 1-602;1-629, |)
T3 sequence 1: T2 sequence 1 with A25K, A161K
T3 sequence 2: T2 sequence 2

Measured: binding result

B1: 30 bp EMSA substrate (dsDNA)
DNA 1: GUGGAAATCAAACGTAAGTAGAATCCAAAGTCT
DNA 2: TAGACTTTGGATTCTACTTACGTTTGATTTC
modifications: deoxyuridine at position 2 of strand 1 (no UDG treatment for EMSA); 5' phosphate on strand 1; 5' biotin-TEG on strand 2
binds: all assays above
